Test results from patent US20060286032A1, “A radiosotope-chitosan complex for treatment of prostate cancer” (priority 2003, published 2006).
Marks after values point to notes of the source that are not given here.

How the values were obtained:
[1] = Radioactive concentrations in collected organs and tissues by liquid scintillation counter after injection into the prostate gland; assay type: in vivo, SD rats; conditions: for Administered radioactivity retained in the prostate gland: until 144 hrs after administration
Method: After the complex solution was administered, accurate radioactive concentrations were measured in various organs. 25 μl of the complex solution as a test drug were administered to the prostate gland in the abdominal region of SD rats, which was equal to about 100 μCi. After 0.5, 2, 6, 24, 72 and 144 hrs, the rats were anesthetized with diethylether and exsanguinated by incision of abdominal aorta. Various organs and tissues were collected, which included blood, plasma, brain, thymus, heart, lung, liver, kidney, adrenal gland, spleen, pancreas, testes, prostate gland (including an administration site), seminal vesicle, epididymis, bladder, skeletal muscle, bones, bone marrow, skin, carcass, stomach, small intestine, rectum and large intestine. The collected organs and tissues were weighed, sectioned and homogenized. The whole sample or the supernatant was assayed for radioactivity using a liquid scintillation counter. The measured radioactive concentrations in various organs and tissues according to the time are given in Table 3 (% ID/g) and Table 4 (% of dose).

[2] = tested on: AIT tumor transplanted into the prostate gland; assay: Histopathological examination of tumor tissue of rats of the orthotopic model (hematoxylin and eosin); assay type: in vivo, noble rats
Source text: (§1) From all rats tested in Experimental Example 7, which were sacrificed on the last day of the test, the heart, lung, liver, kidney, spleen, testes, epididymis, seminal vesicle, bladder, rectum and tumor tissues were excised, embedded in paraffin according to general tissue processing, and sectioned into a thickness of 3 μm. The tissue sections were subjected to double staining with hematoxylin and eosin and histopathologically examined.

[3] = Autoradiography, complex solution versus ^166Ho(NO3)3.5H2O solution not containing chitosan, injected into the prostate gland; assay type: in vivo, rats; conditions: for Radioactive concentration, Administration site / Radioactive concentration, End region of femur / Radioactive concentration, Liver / Radioactive concentration, Spine / Radioactive concentration, Kidney / Radioactive concentration, Spleen: 25 μl (about 100 μCi)
Method: To investigate advantages of the ^166Ho-chitosan complex, autoradiography was carried out for a group administered with the complex solution and a control group administered with a ^166Ho(NO3)3.5H2O solution not containing chitosan. In the complex solution administration group, 25 μl of the complex solution was administered, which was equal to about 100 μCi. The control group was administered with a ^166Ho(NO3)3.5H2O solution not containing chitosan with the same dosage and radioactive concentration as in the complex solution administration group. This test was carried out according to the same method as in Experimental Example 1, and each test drug was administered to the prostate gland. After 0.5, 2, 6 and 24 hrs, rats were sacrificed and evaluated by autoradiography. The measured radioactive concentrations (% ID/g) in various organs after injection of the complex solution and the ^166Ho(NO3)3.5H2O solution are given in Table 2, below.

[4] = Histopathological examination of organs of rats of the orthotopic model (hematoxylin and eosin); assay type: in vivo, noble rats; conditions: for Histopathological changes in organs other than the tumor tissue (heart, lung, liver, kidney, spleen, testes, epididymis, seminal vesicle, bladder, rectum): last day of the test
Source text: as §1

[5] = tested on: AIT carcinoma (androgen-independent carcinoma cell line); assay: Antitumor effect in AIT subcutaneous tumor model; assay type: in vivo, noble rats; conditions: for Tumor weight: four weeks after administration; for Tumor growth inhibition rate: four weeks, tumor weight vs control
Method: To evaluate the effect of the complex on hormone-independent prostate cancer, an AIT carcinoma (androgen-independent carcinoma cell line) was transplanted into noble rats, and the antitumor effect of the complex was examined.
An androgen-independent, prostate carcinoma cell line, AIT, which is derived from noble rats, was cultured in 10% FBS-containing DMEM at 37° under 5% CO2. The cultured carcinoma cells were suspended in sterile physiological saline at a density of 4×10^6 cells/ml, and 2×10^6 cells were subcutaneously transplanted into the lateral abdomen of male 5-week noble rats. When the long axis of the tumor was about 1 cm long (in this test, 14 days after transplantation), the rats were grouped according to the tumor mass. The kit prepared in Example 2 was used as a test drug, and was administered at the same dose as in Experimental Example 5, that is, 0.2 ml. The rats were divided into four groups: a control group (no treatment); two administration groups administered with the complex solution at 10 mCi and 20 mCi per 1 cm^3 tumor; and another administration group administered with a non-radioactive complex solution (Holmium-165 (^165Ho)-chitosan complex solution). Four weeks after administration with the complex solution, tumors were excised from the rats, and tumor growth inhibition rates were measured by weighing the tumors.

[6] = listed as radioisotope-chitosan complex
[7] = 0.5 mCi, four weeks after administration (FIG. 2 C and D)

With “Holmium-166 (^166Ho)-Chitosan Complex [complex solution]” the “Radioactive concentration, Blood” value ([1]; 30 min after injection) was 26 ± 10 % ID/g ×10^−4, the “Radioactive concentration, Bones” value ([1]; 30 min after injection) was 71 ± 55 % ID/g ×10^−4 and the “Radioactive concentration, Plasma” value ([1]; 30 min after injection) was 44 ± 16 % ID/g ×10^−4. The “Radioactive concentration, Blood” value ([1]; 2 hrs after injection) was 19 ± 9 % ID/g ×10^−4, the “Radioactive concentration, Bones” value ([1]; 2 hrs after injection) was 189 ± 79 % ID/g ×10^−4 and the “Radioactive concentration, Plasma” value ([1]; 2 hrs after injection) was 32 ± 11 % ID/g ×10^−4. The “Radioactive concentration, Bone marrow” value ([1]; 6 hrs after injection) was 17 % ID/g ×10^−4, the “Radioactive concentration, Bones” value ([1]; 6 hrs after injection) was 185 ± 107 % ID/g ×10^−4 and the “Radioactive concentration, Bone marrow” value ([1]; 24 hrs after injection) was 32 ± 4 % ID/g ×10^−4. For the same substance, the “Radioactive concentration, Bones” value ([1]; 24 hrs after injection) was 711 ± 413 % ID/g ×10^−4, the “Radioactive concentration in other tissues (other than prostate gland, carcass, liver)” value ([1]; 72 hrs after administration) was “less than 0.1%” and the “Radioactive concentration, Bone marrow” value ([1]; 72 hrs after injection) was 109 ± 40 % ID/g ×10^−4. The “Radioactive concentration, Bones” value ([1]; 72 hrs after injection) was 2343 ± 827 % ID/g ×10^−4, the “Radioactive concentration, Bones” value ([1]; 144 hrs after injection) was 1708 ± 506 % ID/g ×10^−4 and the “Radioactivity in major organs (brain, thymus, heart, lung, adrenal gland, spleen) and adjacent organs (bladder, rectum, testes, epididymis)” value ([1]; rat, in vivo) was “rarely detected”. The “Administered radioactivity retained in the prostate gland” value [1] was “over 98%”, the “Administered radioactivity retained in the prostate gland” value [1, 6] was “more than 98%” and the “Histopathology of the tumor, center of injection site” value [2, 7] was “broad necrosis”. The “Tumor cells in injection site” value [2, 7] was “all of tumor cells in injection site are necrotized”, the “Histopathology of the tumor tissue at the administration site” value ([2]; last day of the test) was “a large necrosis” and the “Radioactive concentration, Administration site” value ([3]; 30 min) was 4149 ± 1563.2 % ID/g. The “Radioactive concentration, End region of femur” value ([3]; 30 min) was 0.04 ± 0.015 % ID/g, the “Radioactive concentration, Liver” value ([3]; 30 min) was 0.01 ± 0.004 % ID/g and the “Radioactive concentration, Spine” value ([3]; 30 min) was 0.01 ± 0.002 % ID/g. For the same substance, the “Radioactive concentration, Administration site” value ([3]; 2 hrs) was 3246 ± 764.0 % ID/g, the “Radioactive concentration, End region of femur” value ([3]; 2 hrs) was 0.07 ± 0.013 % ID/g and the “Radioactive concentration, Liver” value ([3]; 2 hrs) was 0.016 % ID/g. The “Radioactive concentration, Spine” value ([3]; 2 hrs) was 0.02 ± 0.004 % ID/g, the “Radioactive concentration, Administration site” value ([3]; 6 hrs) was 4815 ± 1177.4 % ID/g and the “Radioactive concentration, End region of femur” value ([3]; 6 hrs) was 0.21 ± 0.101 % ID/g. For the same substance, the “Radioactive concentration, Kidney” value ([3]; 6 hrs) was 0.02^b % ID/g, the “Radioactive concentration, Liver” value ([3]; 6 hrs) was 0.04 ± 0.024 % ID/g and the “Radioactive concentration, Spine” value ([3]; 6 hrs) was 0.05 ± 0.024 % ID/g. The “Radioactive concentration, Spleen” value ([3]; 6 hrs) was 0.03 ± 0.027 % ID/g, the “Radioactive concentration, Administration site” value ([3]; 24 hrs) was 3998 ± 705.1 % ID/g and the “Radioactive concentration, End region of femur” value ([3]; 24 hrs) was 0.55 ± 0.324 % ID/g. For the same substance, the “Radioactive concentration, Kidney” value ([3]; 24 hrs) was 0.03 ± 0.016 % ID/g, the “Radioactive concentration, Liver” value ([3]; 24 hrs) was 0.04 ± 0.004 % ID/g and the “Radioactive concentration, Spine” value ([3]; 24 hrs) was 0.14 ± 0.070 % ID/g. For the same substance, the “Radioactive concentration, Spleen” value ([3]; 24 hrs) was 0.04 ± 0.010 % ID/g, the “Radioactivity retained in the administration site, the prostate gland” value ([3]; 24 hrs after being administered) was ~90% and the “Histopathological changes in organs other than the tumor tissue (heart, lung, liver, kidney, spleen, testes, epididymis, seminal vesicle, bladder, rectum)” value ([4]; listed as present complex solution) was “no abnormalities in adjacent organs were found”. The “Histopathological changes in organs other than the tumor tissue (heart, lung, liver, kidney, spleen, testes, epididymis, seminal vesicle, bladder, rectum)” value [4, 6] was “particular histopathological changes are not found”, the “Cellularity of the bone marrow and peripheral blood” value ([4]; rat, in vivo) was “not reduced” and the Tumor weight ([5]; 10 mCi per 1 cm^3 tumor) was 2.1 ± 0.78 g. The “Tumor growth inhibition rate” value ([5]; 10 mCi per 1 cm^3 tumor) was 90.7%, the Tumor weight ([5]; 20 mCi per 1 cm^3 tumor) was 0.7 ± 0.18 g and the “Tumor growth inhibition rate” value ([5]; 20 mCi per 1 cm^3 tumor) was 96.7%. The “Inhibitory activity against the tumor growth” value ([5]; subcutaneous tumor model) was “higher than 90%”.
